Molecular target: T1, Gly-Asp-Asp-Asp-Asp-Lys-β-naphthylamide
T1 chain: GDDDDK

B1: CBM-enterokinase produced transiently in lettuce and purified on cellulose (protein)
chain: MVATAKYGTPVIDGEIDEIWNTTEEIETKAVAMGSLDKNATAKVRVLWDENYLYVLAIVKDPVLNKDNSNPWEQDSVEIFIDENNHKTGYYEDDDAQFRVNYMNEQTFGTGGSPARFKTAVKLIEGGYIVEAAIKWKTIKPTPNTVIGFNIQVNDANEKGQRVGIISWSDPTNNSWRDPSKFGNLRLIK
Question: With B1 as the protein, how does the Enterokinase activity read?
Answer: The Enterokinase activity was 442,7 cps/min/µg.

— patent US20070107085
